Data from publication PMC9482650, “Quantitative fragmentomics allow affinity mapping of interactomes” (Nature Communications, 2022).
Where a chain is given by its changes, count along the chain named.

T1: MPDZ_5, O75970
T1 sequence (O75970 695-796, limits assumed, looked up): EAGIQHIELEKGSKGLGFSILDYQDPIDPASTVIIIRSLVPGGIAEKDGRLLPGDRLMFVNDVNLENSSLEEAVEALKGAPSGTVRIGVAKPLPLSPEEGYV

T2: PDZD7_3, Q9H5P4
T2 sequence (Q9H5P4 857-944, limits assumed, looked up): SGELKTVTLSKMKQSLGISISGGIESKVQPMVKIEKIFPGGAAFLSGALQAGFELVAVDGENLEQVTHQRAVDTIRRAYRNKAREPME

T3: NHERF3_3, Q5T2W1
T3 sequence (Q5T2W1 238-333, limits assumed, looked up): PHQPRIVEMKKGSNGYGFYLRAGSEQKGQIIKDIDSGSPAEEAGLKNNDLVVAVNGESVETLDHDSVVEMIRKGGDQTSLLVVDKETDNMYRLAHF

T4: GRIP1_4, Q9Y3R0
T4 sequence (Q9Y3R0 467-571, limits assumed, looked up): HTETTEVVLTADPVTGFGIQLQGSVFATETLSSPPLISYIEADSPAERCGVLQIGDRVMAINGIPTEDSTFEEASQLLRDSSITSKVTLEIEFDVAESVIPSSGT

T5: LIN7B, Q9HAP6
T5 sequence (Q9HAP6 88-185, limits assumed, looked up): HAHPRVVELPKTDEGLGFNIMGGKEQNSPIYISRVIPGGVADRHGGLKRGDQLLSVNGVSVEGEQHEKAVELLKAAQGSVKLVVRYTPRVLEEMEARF

T6: HTRA3, P83110
T6 sequence (P83110 354-453, limits assumed, looked up): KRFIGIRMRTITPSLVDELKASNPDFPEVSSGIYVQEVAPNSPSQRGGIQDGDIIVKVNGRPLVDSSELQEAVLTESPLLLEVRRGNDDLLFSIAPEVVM

T7: LIN7C, Q9NUP9
T7 sequence (Q9NUP9 88-185, limits assumed, looked up): T5 sequence (Q9HAP6 88-185, limits assumed, looked up) with A2S, D13E, V35I, V40I, Q65H, S79K, R89K, A96S

T8: APBA2_2, Q99767
T8 sequence (Q99767 654-744, limits assumed, looked up): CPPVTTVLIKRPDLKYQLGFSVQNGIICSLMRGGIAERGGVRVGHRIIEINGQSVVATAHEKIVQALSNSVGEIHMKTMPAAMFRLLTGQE

T9: APBA3_1, O96018
T9 sequence (O96018 389-490, limits assumed, looked up): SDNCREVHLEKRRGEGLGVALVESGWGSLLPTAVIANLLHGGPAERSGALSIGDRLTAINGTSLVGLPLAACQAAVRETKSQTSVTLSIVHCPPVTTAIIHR

B1: CLDN9, O95484 (peptide)
chain: ASGLDKRDYV

target: FRMPD3, Q5JV73; test: holdup assay; parameters: key: below the threshold = too weak to quantify, mostly under pKd 3.1 to 4; conditions: plain residues with an end cap or a label only (N-terminal biotin on a linker: ado-ado)
Sequence (Q5JV73 12-100): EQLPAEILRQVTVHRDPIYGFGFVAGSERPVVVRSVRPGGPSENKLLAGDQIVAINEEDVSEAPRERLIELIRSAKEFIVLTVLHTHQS

Binder | pKd
B1 | below the threshold

target: LDB3, O75112; test: holdup assay; parameters: key: below the threshold = too weak to quantify, mostly under pKd 3.1 to 4; conditions: plain residues with an end cap or a label only (N-terminal biotin on a linker: ado-ado)
Sequence (O75112 1-94): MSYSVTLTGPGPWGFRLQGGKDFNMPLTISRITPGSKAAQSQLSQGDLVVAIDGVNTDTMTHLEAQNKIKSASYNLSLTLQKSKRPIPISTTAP

Binder | pKd
B1 | below the threshold

target: ARHGEF12, Q9NZN5-2; test: holdup assay; parameters: key: below the threshold = too weak to quantify, mostly under pKd 3.1 to 4; conditions: plain residues with an end cap or a label only (N-terminal biotin on a linker: ado-ado)
Sequence (Q9NZN5 other isoform, or with tags, fused parts or gaps): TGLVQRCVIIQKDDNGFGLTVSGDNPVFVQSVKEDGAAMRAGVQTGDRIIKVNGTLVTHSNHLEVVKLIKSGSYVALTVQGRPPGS

Binder | pKd
B1 | below the threshold

target: IL16_4, Q14005; test: holdup assay; parameters: key: below the threshold = too weak to quantify, mostly under pKd 3.1 to 4; conditions: plain residues with an end cap or a label only (N-terminal biotin on a linker: ado-ado)
Sequence (Q14005 1229-1329): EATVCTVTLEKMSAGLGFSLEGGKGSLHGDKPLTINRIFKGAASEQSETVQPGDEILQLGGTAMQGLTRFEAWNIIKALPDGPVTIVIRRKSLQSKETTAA

Binder | pKd
B1 | below the threshold

target: T1, MPDZ_5, O75970; test: holdup assay; parameters: key: below the threshold = too weak to quantify, mostly under pKd 3.1 to 4; conditions: plain residues with an end cap or a label only (N-terminal biotin on a linker: ado-ado)

Binder | pKd
B1 | below the threshold

target: DLG1_1, Q12959; test: holdup assay; parameters: key: below the threshold = too weak to quantify, mostly under pKd 3.1 to 4; conditions: plain residues with an end cap or a label only (N-terminal biotin on a linker: ado-ado)

Binder | pKd
B1 | below the threshold

target: T2, PDZD7_3, Q9H5P4; test: holdup assay; parameters: key: below the threshold = too weak to quantify, mostly under pKd 3.1 to 4; conditions: plain residues with an end cap or a label only (N-terminal biotin on a linker: ado-ado)

Binder | pKd
B1 | below the threshold

target: DLG4_3, P78352; test: holdup assay; parameters: key: below the threshold = too weak to quantify, mostly under pKd 3.1 to 4; conditions: plain residues with an end cap or a label only (N-terminal biotin on a linker: ado-ado)
Sequence (P78352 306-403): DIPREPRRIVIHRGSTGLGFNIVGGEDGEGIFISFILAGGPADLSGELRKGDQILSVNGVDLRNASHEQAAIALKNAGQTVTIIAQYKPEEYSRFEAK

Binder | pKd
B1 | below the threshold

target: T3, NHERF3_3, Q5T2W1; test: holdup assay; parameters: key: below the threshold = too weak to quantify, mostly under pKd 3.1 to 4; conditions: plain residues with an end cap or a label only (N-terminal biotin on a linker: ado-ado)

Binder | pKd
B1 | below the threshold

target: Inadl_5, Q8NI35; test: holdup assay; parameters: key: below the threshold = too weak to quantify, mostly under pKd 3.1 to 4; conditions: plain residues with an end cap or a label only (N-terminal biotin on a linker: ado-ado)
Sequence (Q8NI35 673-780): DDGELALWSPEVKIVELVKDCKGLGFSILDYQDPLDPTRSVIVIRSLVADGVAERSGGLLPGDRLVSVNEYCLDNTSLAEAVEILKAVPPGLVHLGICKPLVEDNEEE

Binder | pKd
B1 | below the threshold

target: LAP2, Q96RT1; test: holdup assay; parameters: key: below the threshold = too weak to quantify, mostly under pKd 3.1 to 4; conditions: plain residues with an end cap or a label only (N-terminal biotin on a linker: ado-ado)
Sequence (Q96RT1 other isoform, or with tags, fused parts or gaps): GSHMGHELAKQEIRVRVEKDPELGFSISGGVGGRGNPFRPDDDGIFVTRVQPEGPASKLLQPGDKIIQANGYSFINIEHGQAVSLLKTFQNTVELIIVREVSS

Binder | pKd
B1 | below the threshold

target: MAGI2_3, Q86UL8; test: holdup assay; parameters: key: below the threshold = too weak to quantify, mostly under pKd 3.1 to 4; conditions: plain residues with an end cap or a label only (N-terminal biotin on a linker: ado-ado)
Sequence (Q86UL8 600-682): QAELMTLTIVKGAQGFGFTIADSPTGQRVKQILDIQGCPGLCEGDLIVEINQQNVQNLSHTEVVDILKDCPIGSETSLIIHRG

Binder | pKd
B1 | below the threshold

target: HTRA1, Q92743; test: holdup assay; parameters: key: below the threshold = too weak to quantify, mostly under pKd 3.1 to 4; conditions: plain residues with an end cap or a label only (N-terminal biotin on a linker: ado-ado)
Sequence (Q92743 360-477): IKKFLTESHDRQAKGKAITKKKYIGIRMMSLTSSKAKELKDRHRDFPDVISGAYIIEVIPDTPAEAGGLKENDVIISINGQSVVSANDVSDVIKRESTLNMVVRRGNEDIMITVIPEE

Binder | pKd
B1 | 3.84

target: PDZRN4_1, Q6ZMN7; test: holdup assay; parameters: key: below the threshold = too weak to quantify, mostly under pKd 3.1 to 4; conditions: plain residues with an end cap or a label only (N-terminal biotin on a linker: ado-ado)
Sequence (Q6ZMN7 213-318): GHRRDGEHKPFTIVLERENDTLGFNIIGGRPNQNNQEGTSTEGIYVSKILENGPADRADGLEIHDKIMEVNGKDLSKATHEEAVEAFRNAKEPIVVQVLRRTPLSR

Binder | pKd
B1 | below the threshold

target: T4, GRIP1_4, Q9Y3R0; test: holdup assay; parameters: key: below the threshold = too weak to quantify, mostly under pKd 3.1 to 4; conditions: plain residues with an end cap or a label only (N-terminal biotin on a linker: ado-ado)

Binder | pKd
B1 | below the threshold

target: T5, LIN7B, Q9HAP6; test: holdup assay; parameters: key: below the threshold = too weak to quantify, mostly under pKd 3.1 to 4; conditions: plain residues with an end cap or a label only (N-terminal biotin on a linker: ado-ado)

Binder | pKd
B1 | below the threshold

target: T6, HTRA3, P83110; test: holdup assay; parameters: key: below the threshold = too weak to quantify, mostly under pKd 3.1 to 4; conditions: plain residues with an end cap or a label only (N-terminal biotin on a linker: ado-ado)

Binder | pKd
B1 | 3.79

target: MAGI2_4, Q86UL8; test: holdup assay; parameters: key: below the threshold = too weak to quantify, mostly under pKd 3.1 to 4; conditions: plain residues with an end cap or a label only (N-terminal biotin on a linker: ado-ado)
Sequence (Q86UL8 772-865): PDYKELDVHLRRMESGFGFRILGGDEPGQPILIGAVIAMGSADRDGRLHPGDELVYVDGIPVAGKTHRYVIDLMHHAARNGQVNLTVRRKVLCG

Binder | pKd
B1 | below the threshold

target: T7, LIN7C, Q9NUP9; test: holdup assay; parameters: key: below the threshold = too weak to quantify, mostly under pKd 3.1 to 4; conditions: plain residues with an end cap or a label only (N-terminal biotin on a linker: ado-ado)

Binder | pKd
B1 | 4

target: Inadl_10, Q8NI35; test: holdup assay; parameters: key: below the threshold = too weak to quantify, mostly under pKd 3.1 to 4; conditions: plain residues with an end cap or a label only (N-terminal biotin on a linker: ado-ado)
Sequence (Q8NI35 1673-1763): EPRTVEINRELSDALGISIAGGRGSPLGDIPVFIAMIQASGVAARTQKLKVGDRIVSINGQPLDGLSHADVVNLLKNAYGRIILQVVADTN

Binder | pKd
B1 | below the threshold

target: IL16_1, Q14005; test: holdup assay; parameters: key: below the threshold = too weak to quantify, mostly under pKd 3.1 to 4; conditions: plain residues with an end cap or a label only (N-terminal biotin on a linker: ado-ado)
Sequence (Q14005 210-306): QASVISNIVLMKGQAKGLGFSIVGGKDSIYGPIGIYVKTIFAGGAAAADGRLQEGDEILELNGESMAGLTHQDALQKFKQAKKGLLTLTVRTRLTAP

Binder | pKd
B1 | below the threshold

target: T8, APBA2_2, Q99767; test: holdup assay; parameters: key: below the threshold = too weak to quantify, mostly under pKd 3.1 to 4; conditions: plain residues with an end cap or a label only (N-terminal biotin on a linker: ado-ado)

Binder | pKd
B1 | below the threshold

target: DLG4_2, P78352; test: holdup assay; parameters: key: below the threshold = too weak to quantify, mostly under pKd 3.1 to 4; conditions: plain residues with an end cap or a label only (N-terminal biotin on a linker: ado-ado)
Sequence (P78352 155-259): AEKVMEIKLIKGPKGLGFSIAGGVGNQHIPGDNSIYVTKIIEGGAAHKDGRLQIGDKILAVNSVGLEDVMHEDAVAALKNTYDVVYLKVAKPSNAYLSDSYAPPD

Binder | pKd
B1 | below the threshold

target: PDLIM1, O00151; test: holdup assay; parameters: key: below the threshold = too weak to quantify, mostly under pKd 3.1 to 4; conditions: plain residues with an end cap or a label only (N-terminal biotin on a linker: ado-ado)
Sequence (O00151 1-87): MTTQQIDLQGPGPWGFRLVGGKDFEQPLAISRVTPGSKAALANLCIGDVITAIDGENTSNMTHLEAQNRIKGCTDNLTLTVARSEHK

Binder | pKd
B1 | below the threshold

target: LNX1_3, Q8TBB1; test: holdup assay; parameters: key: below the threshold = too weak to quantify, mostly under pKd 3.1 to 4; conditions: plain residues with an end cap or a label only (N-terminal biotin on a linker: ado-ado)
Sequence (Q8TBB1 500-596): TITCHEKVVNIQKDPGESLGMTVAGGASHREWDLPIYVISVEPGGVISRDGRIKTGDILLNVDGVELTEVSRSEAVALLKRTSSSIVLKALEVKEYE

Binder | pKd
B1 | below the threshold

target: T9, APBA3_1, O96018; test: holdup assay; parameters: key: below the threshold = too weak to quantify, mostly under pKd 3.1 to 4; conditions: plain residues with an end cap or a label only (N-terminal biotin on a linker: ado-ado)

Binder | pKd
B1 | below the threshold

target: GRIP2_7, Q9C0E4; test: holdup assay; parameters: key: below the threshold = too weak to quantify, mostly under pKd 3.1 to 4; conditions: plain residues with an end cap or a label only (N-terminal biotin on a linker: ado-ado)
Sequence (Q9C0E4 934-1023): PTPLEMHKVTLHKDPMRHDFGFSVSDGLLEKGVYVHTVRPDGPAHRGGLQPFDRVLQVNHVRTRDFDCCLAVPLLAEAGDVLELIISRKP

Binder | pKd
B1 | below the threshold

target: AHNAK1, Q09666; test: holdup assay; parameters: key: below the threshold = too weak to quantify, mostly under pKd 3.1 to 4; conditions: plain residues with an end cap or a label only (N-terminal biotin on a linker: ado-ado)
Sequence (Q09666 4-100): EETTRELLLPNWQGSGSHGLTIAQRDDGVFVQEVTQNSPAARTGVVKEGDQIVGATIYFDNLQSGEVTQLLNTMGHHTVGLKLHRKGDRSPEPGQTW

Binder | pKd
B1 | below the threshold

target: DLG2_2, Q15700; test: holdup assay; parameters: key: below the threshold = too weak to quantify, mostly under pKd 3.1 to 4; conditions: plain residues with an end cap or a label only (N-terminal biotin on a linker: ado-ado)
Sequence (Q15700 189-283): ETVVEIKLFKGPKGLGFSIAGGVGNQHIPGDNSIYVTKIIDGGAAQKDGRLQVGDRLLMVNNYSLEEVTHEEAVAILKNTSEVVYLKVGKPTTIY

Binder | pKd
B1 | below the threshold
